# Assay results: PMC2570489, “The Co-Operonic PE25/PPE41 Protein Complex of Mycobacterium tuberculosis Elicits Increased Humoral and Cell Mediated Immune Response” (PLoS ONE, 2008)
# T1: PPE41 protein of Mycobacterium tuberculosis (Mycobacterium tuberculosis, UniProt Q79FE1 1-194)
# T1 construct: also called Rv2430c; rRv2431c (as printed in the methods)
# T1 sequence: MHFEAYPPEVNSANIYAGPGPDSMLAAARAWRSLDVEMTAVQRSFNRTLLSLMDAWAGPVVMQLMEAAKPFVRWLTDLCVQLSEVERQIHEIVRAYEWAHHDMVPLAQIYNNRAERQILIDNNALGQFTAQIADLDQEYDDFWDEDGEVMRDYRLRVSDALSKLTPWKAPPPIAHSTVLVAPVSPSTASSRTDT
# B1: PE25 protein of Mycobacterium tuberculosis (natural protein)
# chain: MSFVITNPEALTVAATEVRRIRDRAIQSDAQVAPMTTAVRPPAADLVSEKAATFLVEYARKYRQTIAAAAVVLEEFAHALTTGADKYATAEADNIKTFS
# notes: also called Rv2431c; rRv2430c (as printed in the methods)
# Target: T1, PPE41 protein of Mycobacterium …
# Test: co-purification by Cobalt affinity chromatography
# Conditions: partners not purified
binder,measurement,value
B1,binding result,binds
